Source: article PMC5216073

Assays:
[1] = biological target: CtYpt7-K38A (Chaetomium thermophilum)
[2] = biological target: CtYpt7-F33A (Chaetomium thermophilum)
[3] = biological target: CtYpt7 wild type (Chaetomium thermophilum Ypt7) (Chaetomium thermophilum)

kcat/KM of MC1-stimulated nucleotide exchange (fluorescence GEF assay, rates against CtMC1core concentration) [1]: 2600 M⁻¹ s⁻¹
kcat/KM of MC1-stimulated nucleotide exchange (fluorescence GEF assay, rates against CtMC1core concentration) [2]: 35000 M⁻¹ s⁻¹
kcat/KM of MC1-stimulated exchange of MANT-GDP for GTP on Ypt7 (fluorescence GEF assay, 0-2.0 μM CtMC1core, 25 °C) [3]: 23000 M⁻¹ s⁻¹
Substance: CtMC1core complex (CtMon1 195-355 with CtCcz1 1-249), both expression tags retained, as used in the GEF assay
